Experimental data as given in PMC7397750, “Angiopoietin-like protein 8 differentially regulates ANGPTL3 and ANGPTL4 during postprandial partitioning of fatty acids[S]” (Journal of Lipid Research, 2020).
Values joined by “and” are separate entries in the source; they are usually repeats but may differ in a detail not shown here. Equal values may be shown once. Blank lines part the entries; values can stand above or below the molecule they belong to.

B3: recombinant ANGPTL4/8 complex (complex, human)
chain 1: GPVQSKSPRFASWDEMNVLAHGLLQLGQGLREHAERTRSQLSALERRLSACGSACQGTEGSTDLPLAPESRVDPEVLHSLQTQLKAQNSRIQQLFHKVAQQQRHLEKQHLRIQHLQSQFGLLDHKHLDHEVAKPARRKRLPEMAQPVDPAHNVSRLHRLPRDCQELFQVGERQSGLFEIQPQGSPPFLVNCKMTSDGGWTVIQRRHDGSVDFNRPWEAYKAGFGDPHGEFWLGLEKVHSITGDRNSRLAVQLRDWDGNAELLQFSVHLGGEDTAYSLQLTAPVAGQLGATTVPPSGLSVPFSTWDQDHDLRRDKNCAKSLSGGWWFGTCSHSNLNGQYFRSIPQQRQKLKKGIFWKTWRGRYYPLQATTMLIQPMAAEAAS
chain 2: APMGGPELAQHEELTLLFHGTLQLGQALNGVYRTTEGRLTKARNSLGLYGRTIELLGQEVSRGRDAAQELRASLLETQMEEDILQLQAEATAEVLGEVAQAQKVLRDSVQRLEVQLRSAWLGPAYREFEVLKAHADKQSHILWALTGHVQRQRREMVAQQHRLRQIQERLHTAALPA
B6: LPL (lipoprotein lipase), avidin-tagged (enzyme)
chain: DRITGGKDFRDIESKFALRTPEDTAEDTCHLIPGVTESVANCHFNHSSKTFVVIHGWTVTGMYESWVPKLVAALYKREPDSNVIVVDWLSRAQQHYPVSAGYTKLVGQDVAKFMNWMADEFNYPLGNVHLLGYSLGAHAAGIAGSLTNKKVNRITGLDPAGPNFEYAEAPSRLSPDDADFVDVLHTFTRGSPGRSIGIQKPVGHVDIYPNGGTFQPGCNIGEALRVIAERGLGDVDQLVKCSHERSVHLFIDSLLNEENPSKAYRCNSKEAFEKGLCLSCRKNRCNNMGYEINKVRAKRSSKMYLKTRSQMPYKVFHYQVKIHFSGTESNTYTNQAFEISLYGTVAESENIPFTLPEVSTNKTYSFLLYTEVDIGELLMLKLKWISDSYFSWSNWWSSPGFDIGKIRVKAGETQKKVIFCSREKMSYLQKGKSPVIFVKCHDKSLNRKSG
modifications: biotin/Avi-type tag ('avidin-tagged') for capture on streptavidin, tag omitted; N-glycosylated. The species is not printed. The BLI methods give LPL as from Sigma, whose usual LPL is purified from …

Experiments:
[1] = target: ANGPTL8 (angiopoietin-like protein 8), endogenous in human serum (human (endogenous in serum)) (UniProt Q6UXH0); experiment: affinity purification with mass spectrometry; immunoprecipitation of endogenous complexes from human serum with biotinylated anti-ANGPTL antibodies and streptavidin magnetic beads; trypsin/Lys-C digest; LC-MRM with spiked stable-isotope-labelled peptides; molar ratios from two peptides for each protein
[2] = target: B6; experiment: cell-based or functional assay
[3] = target: T1, ANGPTL8 (angiopoietin-like protein 8), endogenous in human serum (human (endogenous in serum), UniProt Q6UXH0 22-198); experiment: affinity purification with mass spectrometry; immunoprecipitation of endogenous complexes from human serum with biotinylated anti-ANGPTL antibodies and streptavidin magnetic beads; trypsin/Lys-C digest; LC-MRM with spiked stable-isotope-labelled peptides; molar ratios from two peptides for each protein; conditions: partners not purified
T1 construct: ANGPTL8, human, circulating protein of donor serum; also called ANGPLT8; source: endogenous, human serum
T1 sequence (looked up): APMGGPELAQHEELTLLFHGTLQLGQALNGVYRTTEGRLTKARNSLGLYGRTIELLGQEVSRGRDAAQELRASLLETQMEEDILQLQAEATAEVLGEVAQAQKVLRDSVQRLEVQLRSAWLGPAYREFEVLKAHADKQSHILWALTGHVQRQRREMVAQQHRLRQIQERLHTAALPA

[4] = target: B3; experiment: BLI; Octet RED96e; avidin-tagged LPL immobilised on streptavidin biosensors; 50 nM ANGPTL protein or complex; dissociation in buffer-only wells; conditions: both partners purified

IC50 of inhibition of LPL enzymatic activity; human LPL-stable expression cells, BODIPY-TG (EnzChek) substrate [2]: 0.29 nM | IC50 of inhibition of LPL enzymatic activity; human LPL-stable expression cells, VLDL substrate, NEFA released [2]: 0.44 nM
B1: C-terminal HIS-tagged ANGPTL4 (natural protein, human, UniProt Q9BY76-1 26-406, looked up)
chain: GPVQSKSPRFASWDEMNVLAHGLLQLGQGLREHAERTRSQLSALERRLSACGSACQGTEGSTDLPLAPESRVDPEVLHSLQTQLKAQNSRIQQLFHKVAQQQRHLEKQHLRIQHLQSQFGLLDHKHLDHEVAKPARRKRLPEMAQPVDPAHNVSRLHRLPRDCQELFQVGERQSGLFEIQPQGSPPFLVNCKMTSDGGWTVIQRRHDGSVDFNRPWEAYKAGFGDPHGEFWLGLEKVHSITGDRNSRLAVQLRDWDGNAELLQFSVHLGGEDTAYSLQLTAPVAGQLGATTVPPSGLSVPFSTWDQDHDLRRDKNCAKSLSGGWWFGTCSHSNLNGQYFRSIPQQRQKLKKGIFWKTWRGRYYPLQATTMLIQPMAAEAAS

stoichiometry N [3]: 0.8 ANGPTL4 per ANGPTL8 (protein ratio)
B2: ANGPTL4 (angiopoietin-like protein 4), endogenous in human serum, N-terminally intact (natural protein, human (endogenous in serum), UniProt Q9BY76-1 26-406, looked up)
chain: GPVQSKSPRFASWDEMNVLAHGLLQLGQGLREHAERTRSQLSALERRLSACGSACQGTEGSTDLPLAPESRVDPEVLHSLQTQLKAQNSRIQQLFHKVAQQQRHLEKQHLRIQHLQSQFGLLDHKHLDHEVAKPARRKRLPEMAQPVDPAHNVSRLHRLPRDCQELFQVGERQSGLFEIQPQGSPPFLVNCKMTSDGGWTVIQRRHDGSVDFNRPWEAYKAGFGDPHGEFWLGLEKVHSITGDRNSRLAVQLRDWDGNAELLQFSVHLGGEDTAYSLQLTAPVAGQLGATTVPPSGLSVPFSTWDQDHDLRRDKNCAKSLSGGWWFGTCSHSNLNGQYFRSIPQQRQKLKKGIFWKTWRGRYYPLQATTMLIQPMAAEAAS
notes: ANGPTL4, human, circulating protein of donor serum precipitated or captured with an N-terminal ANGPTL4 antibody; Full-length or N-terminal fragment; also called active ANGPTL4; source: endogenous, human serum

IC50 of inhibition of LPL enzymatic activity; human LPL-stable expression cells, BODIPY-TG (EnzChek) substrate [2]: 26 nM
B4: C-terminal HIS-tagged ANGPTL3 (natural protein, human, UniProt Q9Y5C1 17-460, looked up)
chain: SRIDQDNSSFDSLSPEPKSRFAMLDDVKILANGLLQLGHGLKDFVHKTKGQINDIFQKLNIFDQSFYDLSLQTSEIKEEEKELRRTTYKLQVKNEEVKNMSLELNSKLESLLEEKILLQQKVKYLEEQLTNLIQNQPETPEHPEVTSLKTFVEKQDNSIKDLLQTVEDQYKQLNQQHSQIKEIENQLRRTSIQEPTEISLSSKPRAPRTTPFLQLNEIRNVKHDGIPAECTTIYNRGEHTSGMYAIRPSNSQVFHVYCDVISGSPWTLIQHRIDGSQNFNETWENYKYGFGRLDGEFWLGLEKIYSIVKQSNYVLRIELEDWKDNKHYIEYSFYLGNHETNYTLHLVAITGNVPNAIPENKDLVFSTWDHKAKGHFNCPEGYSGGWWWHDECGENNLNGKYNKPRAKSKPERRRGLSWKSQNGRLYSIKSTKMLIHPTDSESFE
notes: source: HEK293, transient, purified (Ni-NTA, SEC)

IC50 of inhibition of LPL enzymatic activity; human LPL-stable expression cells, BODIPY-TG (EnzChek) substrate [2]: 0.14 nM
B5: recombinant ANGPTL3/8 complex (complex, human)
chain 1: SRIDQDNSSFDSLSPEPKSRFAMLDDVKILANGLLQLGHGLKDFVHKTKGQINDIFQKLNIFDQSFYDLSLQTSEIKEEEKELRRTTYKLQVKNEEVKNMSLELNSKLESLLEEKILLQQKVKYLEEQLTNLIQNQPETPEHPEVTSLKTFVEKQDNSIKDLLQTVEDQYKQLNQQHSQIKEIENQLRRTSIQEPTEISLSSKPRAPRTTPFLQLNEIRNVKHDGIPAECTTIYNRGEHTSGMYAIRPSNSQVFHVYCDVISGSPWTLIQHRIDGSQNFNETWENYKYGFGRLDGEFWLGLEKIYSIVKQSNYVLRIELEDWKDNKHYIEYSFYLGNHETNYTLHLVAITGNVPNAIPENKDLVFSTWDHKAKGHFNCPEGYSGGWWWHDECGENNLNGKYNKPRAKSKPERRRGLSWKSQNGRLYSIKSTKMLIHPTDSESFE
chain 2: APMGGPELAQHEELTLLFHGTLQLGQALNGVYRTTEGRLTKARNSLGLYGRTIELLGQEVSRGRDAAQELRASLLETQMEEDILQLQAEATAEVLGEVAQAQKVLRDSVQRLEVQLRSAWLGPAYREFEVLKAHADKQSHILWALTGHVQRQRREMVAQQHRLRQIQERLHTAALPA

The remaining lines, values behind:

Molecule: ANGPTL3 (angiopoietin-like protein 3), endogenous in human serum (natural protein)
stoichiometry N (ANGPTL3 per ANGPTL8 (protein ratio)) [1]: 3.4 and 3.5

Molecule: B3
IC50 of inhibition of LPL enzymatic activity; human LPL-stable expression cells, BODIPY-TG (EnzChek) substrate [2]: 37 nM | IC50 of inhibition of LPL enzymatic activity; human LPL-stable expression cells, VLDL substrate, NEFA released [2]: 105 nM

Molecule: B6
Kd [4]: < 1 pM | koff [4]: < 1e-07 s⁻¹ | kon [4]: 48000 M⁻¹ s⁻¹
